Measurements reported in PMC11272584 (Nature Metabolism, 2024).
Changes are numbered by the printed parent chain.

Tests used:
[1] = biological target: T1, GIPR E288G (human) (UniProt P48546)
T1 sequence: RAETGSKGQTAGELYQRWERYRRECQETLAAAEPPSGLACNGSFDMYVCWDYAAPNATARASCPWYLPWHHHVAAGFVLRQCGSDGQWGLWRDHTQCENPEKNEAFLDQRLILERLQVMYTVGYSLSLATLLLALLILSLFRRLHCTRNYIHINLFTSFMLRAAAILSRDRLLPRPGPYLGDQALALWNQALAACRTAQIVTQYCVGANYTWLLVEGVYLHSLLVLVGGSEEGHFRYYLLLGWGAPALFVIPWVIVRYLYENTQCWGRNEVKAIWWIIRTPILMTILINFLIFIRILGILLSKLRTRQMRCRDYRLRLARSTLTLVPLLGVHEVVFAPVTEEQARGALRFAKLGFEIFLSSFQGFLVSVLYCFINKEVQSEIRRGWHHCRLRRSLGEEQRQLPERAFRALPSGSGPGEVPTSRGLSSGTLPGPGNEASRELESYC

[2] = biological target: T2, GIPR E354Q (human) (UniProt P48546)
T2 sequence: T1 sequence with G267E, E333Q

[3] = biological target: GIPR L13F (human) (UniProt P48546)
[4] = biological target: GIPR R12Q (human) (UniProt P48546)
[5] = biological target: T3, GIPR R164Q (human) (UniProt P48546)
T3 sequence: T1 sequence with R143Q, G267E

[6] = biological target: T4, GIPR R190Q (human) (UniProt P48546)
T4 sequence: T1 sequence with R169Q, G267E

[7] = biological target: T5, GIPR R38L (human) (UniProt P48546)
T5 sequence: T1 sequence with R17L, G267E

[8] = biological target: T6, GIPR T116R (human) (UniProt P48546)
T6 sequence: T1 sequence with T95R, G267E

With “β-arrestin 2 (Rluc8-Arrestin-3-Sp1) (from UniProt P32121 1-409) (natural protein)” the β-arrestin 2 recruitment (BRET) on stimulation with GIP(1-42): logEC50 (Arrestin) (log M (inferred)) [1] was -9.15, the β-arrestin 2 recruitment (BRET) on stimulation with GIP(1-42): logEC50 (Arrestin) (log M (inferred)) [2] was -8.52 and the β-arrestin 2 recruitment (BRET) on stimulation with GIP(1-42): logEC50 (Arrestin) (log M (inferred)) [3] was -8.75. The β-arrestin 2 recruitment (BRET) on stimulation with GIP(1-42): logEC50 (Arrestin) (log M (inferred)) [4] was -8.72, the β-arrestin 2 recruitment (BRET) on stimulation with GIP(1-42): logEC50 (Arrestin) (log M (inferred)) [5] was -8.92 and the β-arrestin 2 recruitment (BRET) on stimulation with GIP(1-42): logEC50 (Arrestin) (log M (inferred)) [6] was -8.86. It also gave a β-arrestin 2 recruitment (BRET) on stimulation with GIP(1-42): logEC50 (Arrestin) (log M (inferred)) [7] of -9 and a β-arrestin 2 recruitment (BRET) on stimulation with GIP(1-42): logEC50 (Arrestin) (log M (inferred)) [8] of -8.71.
